Laboratory results: patent publication US20090291088A1 (Biogen, published 2009)

What was measured:
human INSR(28-956)-His10 = target: T1, human INSR(28-956)-His10 (human, UniProt P06213 28-956); test: ELISA on coated rh-INSR
T1 construct: range 28-956; Bought (R&D Systems 1544-IR); also called rh-INSR; soluble insulin receptor
Procedure: ELISA assays were performed to determine specific binding of the Fab fragment antibodies to soluble IGF-1R over the insulin receptor. […] Color development was stopped by addition of 4NH₂SO₄ and optical density is measured at 450 nm using a Molecular Devices plate reader and binding curves are generated.

[1] = target: T2, hIGF-1R-Fc mutant SD102 (E459A, S460A) (human, UniProt P08069 31-933); test: SPR, Fab over captured mutant
T2 construct: not shown: C-terminal human IgG1-Fc tag

[2] = target: T3, hIGF-1R-Fc mutant SD001 (Y28A) (human, UniProt P08069 31-933); test: SPR, M13-C06 Fab over captured mutant
T3 construct: not shown: C-terminal human IgG1-Fc tag
Procedure: (§1) After, completion of the receptor-Fc loading step, flow rates were elevated to 5 μl/min. […] At the end of each sensorgram, the flow rate was elevated to 30 μl/min and the chip surface was regenerated by 2×10 μL injections of 0.1 M glycine, pH 2.

[3] = target: T4, hIGF-1R-Fc mutant SD002 (M156A) (human, UniProt P08069 31-933); test: SPR, M13-C06 Fab over captured mutant
T4 construct: not shown: C-terminal human IgG1-Fc tag
Procedure: as §1

[4] = target: T5, hIGF-1R-Fc mutant SD003 (T188F) (human, UniProt P08069 31-933); test: SPR, M13-C06 Fab over captured mutant
T5 construct: not shown: C-terminal human IgG1-Fc tag
Procedure: as §1

[5] = target: T6, hIGF-1R-Fc mutant SD004 (S210H_A211Q) (human, UniProt P08069 31-933); test: SPR, M13-C06 Fab over captured mutant
T6 construct: not shown: C-terminal human IgG1-Fc tag
Procedure: as §1

[6] = target: T7, hIGF-1R-Fc mutant SD005 (A217T) (human, UniProt P08069 31-933); test: SPR, M13-C06 Fab over captured mutant
T7 construct: not shown: C-terminal human IgG1-Fc tag
Procedure: as §1

[7] = target: T8, hIGF-1R-Fc mutant SD006 (A227K) (human, UniProt P08069 31-933); test: SPR, M13-C06 Fab over captured mutant
T8 construct: also called SD0006; not shown: C-terminal human IgG1-Fc tag
Procedure: as §1

[8] = target: T9, hIGF-1R-Fc mutant SD007 (N237G) (human, UniProt P08069 31-933); test: SPR, M13-C06 Fab over captured mutant
T9 construct: not shown: C-terminal human IgG1-Fc tag
Procedure: as §1

[9] = target: T10, hIGF-1R-Fc mutant SD008 (S257F) (human, UniProt P08069 31-933); test: SPR, M13-C06 Fab over captured mutant
T10 construct: not shown: C-terminal human IgG1-Fc tag
Procedure: as §1

[10] = target: T11, hIGF-1R-Fc mutant SD009 (E264K) (human, UniProt P08069 31-933); test: SPR, M13-C06 Fab over captured mutant
T11 construct: not shown: C-terminal human IgG1-Fc tag
Procedure: as §1

[11] = target: T12, hIGF-1R-Fc mutant SD010 (G271D) (human, UniProt P08069 31-933); test: SPR, M13-C06 Fab over captured mutant
T12 construct: not shown: C-terminal human IgG1-Fc tag
Procedure: as §1

[12] = target: T13, hIGF-1R-Fc mutant SD011 (G285S_S286T) (human, UniProt P08069 31-933); test: SPR, M13-C06 Fab over captured mutant
T13 construct: not shown: C-terminal human IgG1-Fc tag
Procedure: as §1

[13] = target: T14, hIGF-1R-Fc mutant SD012 (E303G) (human, UniProt P08069 31-933); test: SPR, M13-C06 Fab over captured mutant
T14 construct: not shown: C-terminal human IgG1-Fc tag
Procedure: as §1

[14] = target: T15, hIGF-1R-Fc mutant SD013 (D405K) (human, UniProt P08069 31-933); test: SPR, M13-C06 Fab over captured mutant
T15 construct: not shown: C-terminal human IgG1-Fc tag
Procedure: as §1

[15] = target: T16, hIGF-1R-Fc mutant SD014 (K412A_A413Q) (human, UniProt P08069 31-933); test: SPR, M13-C06 Fab over captured mutant
T16 construct: not shown: C-terminal human IgG1-Fc tag
Procedure: as §1

[16] = target: T17, hIGF-1R-Fc mutant SD016 (D531Q_V532N) (human, UniProt P08069 31-933); test: SPR, M13-C06 Fab over captured mutant
T17 construct: not shown: C-terminal human IgG1-Fc tag
Procedure: as §1

[17] = target: T18, hIGF-1R-Fc mutant SD017 (I650S) (human, UniProt P08069 31-933); test: SPR, M13-C06 Fab over captured mutant
T18 construct: not shown: C-terminal human IgG1-Fc tag
Procedure: as §1

[18] = target: T19, hIGF-1R-Fc mutant SD018 (E665A) (human, UniProt P08069 31-933); test: SPR, M13-C06 Fab over captured mutant
T19 construct: not shown: C-terminal human IgG1-Fc tag
Procedure: as §1

[19] = target: T20, hIGF-1R-Fc mutant SD019 (E739W, L741F) (human, UniProt P08069 31-933); test: SPR, M13-C06 Fab over captured mutant
T20 construct: not shown: C-terminal human IgG1-Fc tag
Procedure: as §1

human IGF-1R(1-903)-Fc = target: T21, human IGF-1R(1-903)-Fc (human, UniProt P08069 31-933); test: SPR, Fab over hIGF-1R-Fc captured by anti-Fc, 1:1 model, apparent affinity
T21 construct: Made by Biogen Idec; Multimerises through IGF-1R and Fc; also called hIGF-1R-Fc; IGF-1R-Fc; not shown: C-terminal human IgG1-Fc tag
Procedure: Experiments were performed on a Biacore 3000 set to 25° C. using HBS-EP (Biacore, Cat. No. BR-1001-88) as the running buffer. An anti-human IgG-Fc antibody (2C11 from Biogenesis, Cat. No. 5218-9850) was immobilized to saturation on a Biacore CM5 chip (Cat. No. BR-1000-14) surface by injection at 500 nM in HBS-EP buffer. mIGF-1R-Fc or hIGF-1R-Fc was captured on the chip surface by injecting 40 μL of 20 nM receptor at 3 μL/min. […] Dissociation of Fab was measured for ˜27 minutes. Fab was serially diluted from 25 to 0.4 nM to obtain concentration dependent kinetic binding curves. Regeneration of the surface chip between each injection series was performed using 3×10 μL injections of 100 mM glycine pH 2.0 at 60 μL/min. Each curve was double referenced using (1) data obtained from a CM5 chip surface devoid of the anti-IgG antibody 2C11 and (2) data from a primary injection of receptor followed by a secondary injection of HBS-EP buffer.

[20] = target: T22, hIGF-1R-Fc mutant SD015 (H464E) (human, UniProt P08069 31-933); test: SPR (Biacore): M13-C06 injected over SD015 captured on an immobilised M13-C06 surface
T22 construct: not shown: C-terminal human IgG1-Fc tag
Procedure: as §1

B1: M13-C06 Fab (Fab, V domains shown)
VH: EVQLLESGGGLVQPGGSLRLSCAASGFTFSIYRMQWVRQAPGKGLEWVSGISPSGGTTWYADSVKGRFTISRDNSKNTLYLQMNSLRAEDTAVYYCARWSGGSGYAFDIWGQGTMVTVSS
VL: DIQMTQSPLSLSASVGDRVTITCQASRDIRNYLNWYQQKPGKAPKLLIYDASSLQTGVPSRFGGSGSGTDFSFTIGSLQPEDIATYYCQQFDSLPHTFGQGTKLEIK
notes: Human Fab from a phage library, kappa light chain
binding result (human INSR(28-956)-His10): no binding (tested: 2 µM-0.2 nM) | binding result [1]: no binding (tested: 10 nM) | Biacore Relative RUmax [2]: 0.6 | Biacore Relative RUmax [3]: 1.2 | Biacore Relative RUmax [4]: 1 | Biacore Relative RUmax [5]: 0.8 | Biacore Relative RUmax [6]: 0.9 | Biacore Relative RUmax [7]: 1.7 | Biacore Relative RUmax [8]: 1.3 | Biacore Relative RUmax [9]: 1.5 | Biacore Relative RUmax [10]: 0.6 | Biacore Relative RUmax [11]: 0.8 | Biacore Relative RUmax [12]: 1.8 | Biacore Relative RUmax [13]: 0.3 | Biacore Relative RUmax [14]: 0.7 | Biacore Relative RUmax [15]: 0.6 | Biacore Relative RUmax [16]: 2 | Biacore Relative RUmax [17]: 2 | Biacore Relative RUmax [18]: 1.7 | Biacore Relative RUmax [19]: 1.9 | Kd (human IGF-1R(1-903)-Fc): 0.978 nM | binding result [20]: no binding (tested: 10 nM)
